# According to patent publication US20220175944A1 (MAGENTA THERAPEUTICS, published 2022):
# B1: CK6 S239C-PBD (antibody, V domains shown)
# VH: QVQLVQSGAAVKKPGESLKISCKGSGYRFTSYWIGWVRQMPGKGLEWMGIIYPGDSDTRYSPSFQGQVTISAGKSISTAYLQWSSLKASDTAMYYCARHGRGYNGYEGAFDIWGQGTMVTVSS
# VL: AIQLTQSPSSLSASVGDRVTITCRASQGISSALAWYQQKPGKAPKLLIYDASSLESGVPSRFSGSGSGTDFTLTISSLQPEDFATYYCQQFNSYPLTFGGGTKVEIK
# modifications: PBD (DNA cross linker) conjugated to the antibody, Fc modification S239C, DAR 1.7
# B2: CK6 S239C-D4 (calicheamicin) (antibody, V domains shown)
# VH: B1 VH
# VL: B1 VL
# modifications: calicheamicin (D4) conjugated to the antibody, Fc modification S239C, DAR 1.72
# B3: CK6-SET0207 (Fc modification D265C H435A) (antibody, V domains shown)
# VH: B1 VH
# VL: B1 VL
# modifications: SET0207 payload ('Non-cleavable natural') conjugated to the antibody, Fc modification D265C H435A, DAR 2.0
# B4: CK6 S239C-PNU (antibody, V domains shown)
# VH: B1 VH
# VL: B1 VL
# modifications: PNU (DNA topoisomerase I/II inhibitor) conjugated to the antibody, Fc modification S239C, DAR 1.4
# B5: CK6 S239C-DM (duocarmycin) (antibody, V domains shown)
# VH: B1 VH
# VL: B1 VL
# modifications: duocarmycin (DM) conjugated to the antibody, Fc modification S239C, DAR 1.65
# Target: T1, Human CD117 on Kasumi-1 cells or primary human CD34+ bone marrow cells (human, UniProt P10721 26-976)
# T1 sequence (P10721 26-976 limits assumed): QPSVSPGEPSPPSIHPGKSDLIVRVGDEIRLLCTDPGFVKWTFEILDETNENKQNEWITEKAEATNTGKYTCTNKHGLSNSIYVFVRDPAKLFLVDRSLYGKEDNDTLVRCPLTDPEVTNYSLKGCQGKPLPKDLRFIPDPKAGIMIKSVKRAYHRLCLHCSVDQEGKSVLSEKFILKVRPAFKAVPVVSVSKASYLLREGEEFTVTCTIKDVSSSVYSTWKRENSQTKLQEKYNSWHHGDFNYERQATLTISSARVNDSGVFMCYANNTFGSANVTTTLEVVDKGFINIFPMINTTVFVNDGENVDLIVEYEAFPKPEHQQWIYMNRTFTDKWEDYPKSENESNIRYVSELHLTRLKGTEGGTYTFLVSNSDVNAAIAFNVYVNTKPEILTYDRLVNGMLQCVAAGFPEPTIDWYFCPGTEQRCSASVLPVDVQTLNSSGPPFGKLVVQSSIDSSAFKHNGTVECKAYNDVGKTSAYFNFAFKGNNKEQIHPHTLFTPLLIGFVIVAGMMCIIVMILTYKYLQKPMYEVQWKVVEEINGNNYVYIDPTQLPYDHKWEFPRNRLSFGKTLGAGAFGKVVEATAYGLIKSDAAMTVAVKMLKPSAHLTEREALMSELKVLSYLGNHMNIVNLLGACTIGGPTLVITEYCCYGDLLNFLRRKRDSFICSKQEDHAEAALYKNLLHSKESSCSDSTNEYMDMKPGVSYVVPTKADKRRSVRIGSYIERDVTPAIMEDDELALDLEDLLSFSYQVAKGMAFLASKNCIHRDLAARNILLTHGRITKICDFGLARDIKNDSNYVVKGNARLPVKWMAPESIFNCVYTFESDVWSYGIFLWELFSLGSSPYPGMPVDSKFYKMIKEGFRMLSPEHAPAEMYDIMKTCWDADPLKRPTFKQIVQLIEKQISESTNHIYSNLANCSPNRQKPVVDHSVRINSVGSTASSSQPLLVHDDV
# Experiment: cell-based or functional assay
row,Binder,"% Efficacy, in vitro Kasumi cell killing assay [%]"
1,B1,60.7
2,B2,0
3,B3,0
4,B4,85.7
5,B5,0

# Target: Baboon CD117 on baboon CD34+ bone marrow cells (baboon)
# Experiment: cell-based or functional assay
row,Binder,"IC50, killing of baboon CD34+ bone marrow cells (live cell counts by flow cytometry) [nM]"
1,B1,0.00066
2,B2,14.6

# Target: T1, Human CD117 on Kasumi-1 cells or …
# Experiment: cell-based or functional assay
# Remark: another data set of the same source
row,Binder,"% Efficacy, in vitro hCD34 cell killing assay [%]"
1,B1,97.3
2,B2,52.3
3,B3,9.18
4,B4,74.4
5,B5,66.2
